From paper PMC3080401, “Oligomerization of the E. coli Core RNA Polymerase: Formation of (α2ββ'ω)2–DNA Complexes and Regulation of the Oligomerization by Auxiliary Subunits” come the findings set out here.

Series [1] deals with RNA polymerase holoenzyme (alpha2 beta beta' omega sigma70) (Escherichia coli, UniProt P0A7Z4;P0A8V2;P0A8T7;P0A800;P00579 1-329;1-1342;1-1407;1-91;1-613). Kind of series: EMSA; 40-160 nM holoenzyme; single-copy (M) complex; EMSA buffer D (1x): 20 mM Tris-acetate, 10 mM Mg acetate, 50 mM K acetate, 1 mM DTT, pH 7.8; native PAGE in 0.5x TBE running buffer; 37 C for the tac and slyD template reactions, otherwise temperature not stated. The following applies: protein: native; chain copies: 2;1;1;1;1; label: 5'-32P. On the technique in general: A gel shift assay detects complexes by their altered migration in electrophoresis.

Series [2] has as its target RNA polymerase core enzyme (alpha2 beta beta' omega) (Escherichia coli, UniProt P0A7Z4;P0A8V2;P0A8T7;P0A800 1-329;1-1342;1-1407;1-91). Description: EMSA; 40-160 nM core; tandem (D) complex; EMSA buffer D (1x): 20 mM Tris-acetate, 10 mM Mg acetate, 50 mM K acetate, 1 mM DTT, pH 7.8; native PAGE in 0.5x TBE running buffer; 37 C for the tac and slyD template reactions, otherwise temperature not stated. The following applies: protein: native; chain copies: 2;1;1;1; label: 5'-32P.

For the molecule CGCGCCAACAGCGACATCAAATTTGTCGCC (mixed) [short DNA probe (Fig 2E)], the binding result in series [1] and in series [2] was “binds” each time.
